In patent US9192622B2, “MicroRNA-130a,b as a tumor suppressor and sensitizing agent for chemotherapy” (University of Houston, priority 2011, dated 2015):

B1: siP53: siRNA to p53 (SEQ ID NO: 27 and 28) (nucleic acid)
chain 1: RGRGRARURURURCRARURCRURCRURURGRURARURARURGR
chain 2: RURCRARURCRARURARURARCRARARGRARGRARURGRARARARURCRCRURC
modifications: listed as RNA, chemistry not fully specified

Key:
[1] = tested on: HeyA8 cells; experiment: Cisplatin dose-response, MTS viability with or without miR-130b; type: cell-based, human; conditions: 72 hours
Protocol: FIGS. 4A-4B: Impact of miR-130b on Cisplatin Dose-Response Curves. Cisplatin treated HeyA8 cells with either miR-130b or a negative control proliferation and apoptosis assays were measured 72 hours following treatment with cisplatin at the indicated concentrations. The assays were measured using MTS (FIG. 4A) and Caspase-Glo 3/7 (FIG. 4B) assays. The IC50 (concentration needed to reach 50% viability) values are shown beside the MTA graph. To assess the impact of miR-130b on cisplatin treatment, HEYA8 cells transfected with pmiR-130b, Negative control or nothing at a density of 2500 cells/well. Cells were treated with cisplatin across a range of concentrations from 0-10 μg/mL. After 72 hours, cells were assayed for growth and apoptosis activity using MTS and Caspase 3/7 assays from Promega as described before. Each sample was normalized to the parental non treated sample. Refractory disease that results from resistance to chemotherapy is a major problem for many ovarian cancer patients. The chemotherapy drug, cisplatin, works by intercalating the genomic DNA of tumor cells causing massive DNA damage that in turn causes the cells to undergo apoptosis or programmed cell […] et al. 2003). […] Seventy-two hours following cisplatin treatment, proliferation and caspase activity were measured using the same MTS and Caspase 3/7 assays used previously.

[2] = tested on: p63/p53/p73 network genes in HeyA8 cells; experiment: qPCR gene expression after p53 siRNA with and without miR-130b; type: cell-based, human; conditions: HeyA8, siRNA to p53, 72 hrs post-transfection
Excerpt: FIGS. 6A-6B: Impact of siRNA against p53 on miR-130b-regulated patterns of gene expression. Since many of the up regulated genes that were induced by miR-130b were also downstream transcriptional targets of p53, transient, siRNA knockdown of p53 was used with and without miR-130b present in HeyA8 (FIG. 6A) and OVCAR8 (FIG. 6B) cells and used qPCR to measure our gene set again with respect to p53. The goal was to dissect the p53-dependent and independent impacts of miR-130b in the p53-wild type HeyA8.
For gene expression analysis of target genes, 75 ng of total RNA from each sample was reverse transcribed using the qScript cDNA Super mix from Quanta Biosciences (95048). All RT-qPCR was carried out with the Veriti OneStep from Applied Biosystems. All qPCR experiments used the […] and Power SYBR Green Master Mix (Applied Biosystems). 18S was used as the endogenous control for all targets.
To determine the role of p53 in miR-130b gene regulation the HEYA and OVCAR8 cell lines were co-transfected with miR-130b and p53 siRNA (IDT_HSC.RNAI.N000546.12.2, 5′-rGrGrA rUrUrU rCrArU rCrUrC rUrUrG rUrArU rArUrGr A-3′, SEQ ID NO: 27), 5′-rUrCrA rUrCrA rUrArU rArCrA rArGrA rGrArU rGrArA rArUrC rCrUrC-3′, SEQ ID NO: 28) 72 hrs post-transfection gene expression was assayed by Q-PCR as described before.
To determine which of these gene expression changes are dependent on p53 patterns of gene expression in miR-130b over-expressing HeyA8 cells were compared in the presence of a siRNA to p53 (siP53).

Molecule	cisplatin IC50 (concentration needed to reach 50% viability) ([1]; HeyA8 with miR-130b)	cisplatin IC50 (concentration needed to reach 50% viability) ([1]; HeyA8 with negative miRNA control (NC))	MDM2 expression level [2]	RB1 expression level [2]	p21 expression level [2]	p53 expression level [2]
N.N.[Cl][Pt][Cl] [cisplatin]	~9.9 µg/mL	~18.3 µg/mL				
B1			down-regulated	up-regulated	down-regulated	down-regulated
